Holding throughout (details): both partners purified
Assay [1] has as its target T1, GABARAPL1 (UniProt Q8R3R8 1-117).
T1 construct: GABARAPL1; source: E. coli BL21 (DE3), purified
The experiment in a line: SEC-MALS; Superose 12 10/300GL column; 100 mM NaCl, 50 mM Tris/HCl pH 7.5, 1 mM DTT, 1 mM EDTA; proteins mixed at a 1:1 molar ratio. (In general: Size exclusion chromatography separates by hydrodynamic size, large species first.)

The target in assay [2] is LC3B (UniProt Q9CQV6 1-120). The assay is described as above.
Assay [3] deals with T2, GABARAP (recombinant, for ITC, SEC and crystallization) (UniProt Q9DCD6 1-117).
T2 construct: GABARAP; also called recombinant GABARAP protein; source: E. coli BL21 (DE3), purified
The assay is described as follows: ITC; VP-ITC, 25 °C; 50 mM Tris/HCl pH 7.5, 100 mM NaCl, 1 mM DTT, 1 mM EDTA; GABARAP or LC3A (350 uM) injected into Trx-tagged FAM134B (35 uM) in the cell; one-site binding model. In general terms: ITC needs no label: the signal is the heat of the interaction.

The target of assay [4] is T3, LC3A (recombinant, for ITC) (UniProt Q91VR7 1-121).
T3 construct: LC3A; source: E. coli BL21 (DE3), purified
The description is as above.

Assay [5] addresses T1, GABARAPL1. The experiment in a line: SEC; FAM134A mixed with GABARAPL1 or LC3B at a 1:1 molar ratio; qualitative.

One may read the Kd as the concentration at which binding is half-saturated.

No end group written: not given here.

T2 sequence (Q9DCD6 whole entry): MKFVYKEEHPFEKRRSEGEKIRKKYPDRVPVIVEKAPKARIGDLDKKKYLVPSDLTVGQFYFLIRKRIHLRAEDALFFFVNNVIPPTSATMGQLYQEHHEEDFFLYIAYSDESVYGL

B1: Trx-tagged FAM134B LIR (aa 451-476) (domain or fragment, UniProt Q9H6L5 451-476, looked up)
chain: EGDDFELLDQSELDQIESELGLTQDQ
modifications: also: Trx-tagged
notes: FAM134B (reticulophagy regulator 1), LIR and C-terminal extension, residues 451-476; 451-476 is what the results give for FAM134B LIR; Named 'Trx-tagged FAM134B' for ITC; I take the same construct for SEC-MALS; source: E. coli BL21 (DE3), purified (Ni2+-NTA, size-exclusion chromatography); not shown: Trx-His6, N-terminal, kept
As to B1, the binding result in assay [1] and in assay [2] was “binds” throughout. Moreover, the Kd in assay [3] is 42 nM; in assay [4], roughly 376 nM.

B2: human FAM134A fragment (residues 488-513) (domain or fragment)
chain: TTEDFELLDQGELEQLNAELGLEPET
notes: FAM134A, human, residues 488-513; source: E. coli BL21 (DE3), purified
B2: in assay [5], the binding result is recorded as “binds”.

(Values after publication PMC8727931, “The crystal structure of the FAM134B–GABARAP complex provides mechanistic insights into the selective binding of FAM134 to the GABARAP subfamily” (FEBS Open Bio, 2021).)
